B1: recombinant mouse pICln (natural protein, UniProt Q61189 1-236, looked up)
chain: MSFLKSFPPPGSADGLRLQQPDTEAVLNGKGLGTGTLYIAESRLSWLDGSGLGFSLEYPTISLHAVSRDPNAYPQEHLYVMVNAKLGEESKEPPSDEDEEDNDDIEPISEFRFVPSDKSALEAMFTAMCECQALHPDPEDEDSDDYDGEEYDVEAHEQGQGDIPTFYTYEEGLSHLTAEGQATLERLEGMLSQSVSSQYNMAGVRTEDSVRNYEDGMEVETTPTVAGQFEDADVDH
notes: pICln, mouse, full length; source: E. coli Rosetta, purified (nickel beads, MonoQ)
B2: Lsm11 lacking residues 211-322 (chain of the Lsm10/11 heterodimer) (natural protein, human, UniProt P83369 1-360, looked up)
chain: MEERERGARSAGAGSPARPPSPRLDVSSDSFDPLLALYAPRLPPIPYPNAPCFNNVAEYESFLRTGVRGGGRGRGRARGAAAGSGVPAAPGPSGRTRRRPDAPAPDPERIQRLRRLMVAKEEGDGAAGAGRRGPGRSRKAPRNVLTRMPLHEGSPLGELHRCIREGVKVNVHIRTFKGLRGVCTGFLVAFDKFWNMALTDVDETYRKPVLQSRKKKRKPKVDYQQVFTRHINQIFIRGENVLLVHLAQ
notes: Lsm11, human, lacking residues 211-322 (internal loop); The Lsm11 chain of m2, written alone for the pairs Lsm11-PRMT5 and Lsm11-Lsm10; also called Lsm11ΔL; source: High5 insect cells (baculovirus), coexpressed with MBP-Lsm10, purified (nickel beads, HiTrap Heparin)
B3: Lsm10-MBP/Lsm11 heterodimer (wild-type, full-length Lsm11) (complex, human)
chain 1: MAVSHSVKERTISENSLIILLQGLQGRVTTVDLRDESVAHGRIDNVDAFMNIRLAKVTYTDRWGHQVKLDDLFVTGRNVRYVHIPDDVNITSTIEQQLQIIHRVRNFGGKGQGRWEFPPKNCK
chain 2: MEERERGARSAGAGSPARPPSPRLDVSSDSFDPLLALYAPRLPPIPYPNAPCFNNVAEYESFLRTGVRGGGRGRGRARGAAAGSGVPAAPGPSGRTRRRPDAPAPDPERIQRLRRLMVAKEEGDGAAGAGRRGPGRSRKAPRNVLTRMPLHEGSPLGELHRCIREGVKVNVHIRTFKGLRGVCTGFLVAFDKFWNMALTDVDETYRKPVLGKAYERDSSLTLTRLFDRLKLQDSSKKEADSKSAVEDSTLSRYSQTSTWKLASVWGRADTGRGSHKRSRSVPSSLQASAREESRSELSGRTTRTDGSSVGGTFSRATTLSRGQSRKKKRKPKVDYQQVFTRHINQIFIRGENVLLVHLAQ
notes: Lsm10, human, full length; Lsm11, human, full length, 360 amino acids; The results call the fusion Lsm10-MBP, the methods say MBP was added to the amino terminus of Lsm10; also called Lsm10/11; 10/11; source: baculovirus-expressed, recombinant; not shown: MBP, N-terminal, kept
B4: Lsm10/11ΔL heterodimer (MBP-Lsm10 with Lsm11 lacking the internal loop, amino acids 211-322) (complex, human)
chain 1: MAVSHSVKERTISENSLIILLQGLQGRVTTVDLRDESVAHGRIDNVDAFMNIRLAKVTYTDRWGHQVKLDDLFVTGRNVRYVHIPDDVNITSTIEQQLQIIHRVRNFGGKGQGRWEFPPKNCK
chain 2: MEERERGARSAGAGSPARPPSPRLDVSSDSFDPLLALYAPRLPPIPYPNAPCFNNVAEYESFLRTGVRGGGRGRGRARGAAAGSGVPAAPGPSGRTRRRPDAPAPDPERIQRLRRLMVAKEEGDGAAGAGRRGPGRSRKAPRNVLTRMPLHEGSPLGELHRCIREGVKVNVHIRTFKGLRGVCTGFLVAFDKFWNMALTDVDETYRKPVLQSRKKKRKPKVDYQQVFTRHINQIFIRGENVLLVHLAQ
notes: Lsm10, human, full length; Lsm11, human, lacking residues 211-322 (internal loop); Purified on nickel beads; also called Lsm10/11ΔL dimer; Lsm11ΔL; source: High5 insect cells (baculovirus), purified (nickel beads, HiTrap Heparin); not shown: MBP, N-terminal, kept

Assays:
Details in all cases: both partners purified
[1] = molecular target: B3; assay: pull-down; recombinant PRMT5/MEP50 mixed with MBP-Lsm10/11 heterodimer (molar ratio 1:1) in the presence of recombinant pICln, collected on amylose beads via MBP on Lsm10; silver staining
[2] = molecular target: T1, recombinant PRMT5/MEP50 complex (human, UniProt O14744 1-637; Q9BQA1 1-342); assay: cryo-EM structure; PRMT5/MEP50, Lsm10/11 and pICln mixed 1:1:1.2, complex purified on Superose 6 (25 mM Tris pH 7.5, 150 mM NaCl, 2 mM DTT); map at 2.86 Å, C1 symmetry
T1 construct: PRMT5, human, full length; MEP50, human, full length; also called PRMT5/MEP50 heterooctamer; PRMT5/MEP50 heterodimer; source: High5 insect cells (baculovirus), coexpressed, purified (nickel beads, Superdex 200); copies: 4 + 4
T1 sequence (O14744 whole entry, chain 1 of 2): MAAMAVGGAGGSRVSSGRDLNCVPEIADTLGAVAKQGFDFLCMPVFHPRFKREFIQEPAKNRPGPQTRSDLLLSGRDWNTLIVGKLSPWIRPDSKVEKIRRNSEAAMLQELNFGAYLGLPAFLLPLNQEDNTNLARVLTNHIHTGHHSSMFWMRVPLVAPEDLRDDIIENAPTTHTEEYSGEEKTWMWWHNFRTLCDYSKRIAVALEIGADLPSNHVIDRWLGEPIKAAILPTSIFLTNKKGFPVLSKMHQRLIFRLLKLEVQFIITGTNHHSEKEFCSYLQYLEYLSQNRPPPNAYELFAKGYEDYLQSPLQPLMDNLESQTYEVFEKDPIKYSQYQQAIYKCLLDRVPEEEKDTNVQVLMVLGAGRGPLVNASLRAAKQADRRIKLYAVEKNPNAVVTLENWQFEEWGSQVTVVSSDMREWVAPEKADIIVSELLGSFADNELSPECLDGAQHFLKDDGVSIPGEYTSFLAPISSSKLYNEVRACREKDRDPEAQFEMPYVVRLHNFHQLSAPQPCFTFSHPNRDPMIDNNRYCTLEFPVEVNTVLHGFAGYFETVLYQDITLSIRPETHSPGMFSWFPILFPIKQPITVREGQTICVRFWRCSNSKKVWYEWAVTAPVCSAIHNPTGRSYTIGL
T1 sequence (Q9BQA1 whole entry, chain 2 of 2): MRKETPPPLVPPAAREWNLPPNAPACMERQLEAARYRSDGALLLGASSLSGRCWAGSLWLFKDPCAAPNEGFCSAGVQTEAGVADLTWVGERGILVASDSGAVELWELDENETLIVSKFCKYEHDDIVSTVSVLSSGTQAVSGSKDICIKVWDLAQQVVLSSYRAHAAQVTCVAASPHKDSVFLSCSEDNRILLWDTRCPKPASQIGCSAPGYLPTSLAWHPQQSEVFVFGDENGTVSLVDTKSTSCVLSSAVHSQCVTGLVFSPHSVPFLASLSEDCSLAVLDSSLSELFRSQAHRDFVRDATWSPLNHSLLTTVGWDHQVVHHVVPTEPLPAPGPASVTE

[3] = molecular target: T2, recombinant human PRMT5 (chain of the PRMT5/MEP50 complex) (human, UniProt O14744 1-637); assay: as above
T2 construct: PRMT5, human, full length; The PRMT5 chain of m17, written alone for the pairs seen in the cryo-EM structures; source: High5 insect cells (baculovirus), coexpressed with MEP50, purified (nickel beads, Superdex 200)
T2 sequence (O14744 whole entry, one chain of several): as the sequence (O14744 whole entry, chain 1 of 2) above

[4] = molecular target: T1, recombinant PRMT5/MEP50 complex; assay: pull-down; recombinant PRMT5/MEP50 mixed with MBP-Lsm10/11 heterodimer (molar ratio 1:1) without pICln, collected on amylose beads via MBP on Lsm10; silver staining

Binder	binding result [1]	binding result [2]	binding result [3]	binding result [4]
B1	binds	binds	binds	
B2			binds	
B3				binds
B4		binds		
